Assay results published in patent US7618800B2, “Glycerol kinase, which has high resistance against preservative” (Toyo Boseki Kabushiki Kaisha, priority 2002, dated 2009).

Legend:
[1] = Thermal stability of glycerol kinase; format: physicochemical; conditions: 50 mM potassium phosphate buffer, pH 7.5, 15-min treatment
Procedure: Glycerol kinase was dissolved in 50 mM potassium phosphate buffer of pH 7.5 to become about 10 U/ml and stored at each temperature for 15 minutes. Subsequently, glycerol kinase activity was assayed to determine the remaining activity.
After dissolving the glycerol kinase in 50 mM potassium phosphate buffer of pH 7.5 to become about 10 U/ml, glycerol kinases were stored at each temperature for 15 minutes to assay the remaining activity. […] Black circle expresses glycerol kinase of the present invention; black squares expresses glycerol kinase from Thermus fiavus.

[2] = Km value for ATP (Lineweaver-Burk, assay method 1); format: biochemical; conditions: ATP concentration changed
Procedure: (§1) Generally, the activity was assayed by the method. Using glycerol as substrate, the enzyme activity was assayed on the basis of the amount of produced glycerol-3-phosphoric acid. By adding 0.1 M HEPES buffer of pH 7.9 to 0.2 ml of 0.5% 4-aminoantipyrine solution, 0.2 ml of 1.5% phenol solution, 200 U of the oxidase of glycerol-3-phosphoric acid, 80 U of peroxidase, and 48.4 mg of ATP, a total volume is adjusted to be 21 ml. The resulting solution was used as the stock solution for the following assays. To 3 ml of the assay stock solution, 50 μl of 0.3 M glycerol solution and 100 μl of the enzyme solution were added and mixed. Each reaction was assayed by recording the absorbance at 500 nm for 3 minutes with a spectrophotometer which is controlled to be 37° C., and calculating the change of the absorbance per minute on the initial linear part (triangle OD test). A blank test was conducted by adding 100 μl of a diluted enzyme solution (20 mM potassium phosphate buffer of pH 7.5 containing 0.2% bovine serum albumin) instead of the enzyme solution and carrying out the same procedures as described above and calculating the change of the absorbance per minute (triangle OD blank). […]

[3] = Glycerol kinase activity by rate assay (relative activity of purified enzyme); format: biochemical; conditions: protein approximated from absorbance at 280 nm
Procedure: Generally, the activity was assayed by the method. Using glycerol as substrate, the enzyme activity was assayed on the basis of the amount of produced glycerol-3-phosphoric acid. By adding 0.1 M HEPES buffer of pH 7.9 to 0.2 ml of 0.5% 4-aminoantipyrine solution, 0.2 ml of 1.5% phenol solution, 200 U of the oxidase of glycerol-3-phosphoric acid, 80 U of peroxidase, and 48.4 mg of ATP, a total volume is adjusted to be 21 ml. The resulting solution was used as the stock solution for the following assays. To 3 ml of the assay stock solution, 50 μl of 0.3 M glycerol solution and 100 μl of the enzyme solution were added and mixed. Each reaction was assayed by recording the absorbance at 500 nm for 3 minutes with a spectrophotometer which is controlled to be 37° C., and calculating the change of the absorbance per minute on the initial linear part (triangle OD test). A blank test was conducted by adding 100 μl of a diluted enzyme solution (20 mM potassium phosphate buffer of pH 7.5 containing 0.2% bovine serum albumin) instead of the enzyme solution and carrying out the same procedures as described above and calculating the change of the absorbance per minute (triangle OD blank).
Based on the change of the absorbance as obtained, the enzyme activity of glycerol kinase was calculated according to the following formula. […]

[4] = pH stability of glycerol kinase; format: physicochemical; conditions: 20 hr treatment at 25° C.
Procedure: Glycerol kinase was dissolved in each of 50 mM buffers to become about 10 U/ml and stored at 25° C. for 20 hours. Subsequently, glycerol kinase activity was assayed to determine remaining activity. […] Black circles express the reaction in the presence of acetate buffer; black squares express the reaction in the presence of potassium phosphate buffer; black diamonds express the reaction in the presence of CHES buffer; black triangles express the reaction in the presence of CAPS buffer.

[5] = Optimal pH (assay method 3); format: biochemical; conditions: 50 mM buffers, 37° C.
Procedure: Glycerol kinase activity was assayed after reaction in each 50 mM buffer at 37° C. for 5 minutes. […] Black circles express the reaction in the presence of 50 mM MES buffer; black squares express the reaction in the presence of 50 mM HEPES buffer; black diamonds express the reaction in the presence of TAPS buffer; black triangles express the reaction in the presence of 50 mM CHES buffer; and white circles express the reaction in the presence of 50 mM glycine-NaOH.
After dividing 3 ml of an active reaction solution (50 mM buffer at each pH, containing 4 mM ATP and 2 mM magnesium chloride) in a test tube, 0.1 ml of a glycerol kinase solution after dilution to an appropriate concentration (about 1 U/ml of the activity measured according to the assay method 1) was added thereto and mixed thoroughly. […] After adding 0.15 ml of the reaction-terminated solution to 3 ml of a chromogenic solution (0.2 M HEPES buffer of pH 7.9 containing 0.01% 4-aminoantipyrin, 0.02% phenol, 5 U/ml peroxidase and 16 U/ml glycerol-3-phosphoric acid oxidase) and mixing, reaction at 37° C. for about 5 minutes was carried out to measure the absorbance at 500 nm. Then, the absorbance of 1 mM L-glycerol-3-phosphoric acid solution was simultaneously measured. The amount of L-glycerol-3-phosphoric acid produced via each enzyme reaction was determined. […]

[6] = Km value for glycerol (Lineweaver-Burk, assay method 1); format: biochemical; conditions: glycerol concentration changed
Procedure: as §1

[7] = Optimal temperature (assay method 2); format: biochemical; conditions: reaction in 20 mM HEPES buffer, pH 7.9 for 5 minutes
Procedure: Glycerol kinase activity was assayed after reaction in […], pH 7.9 at each temperature for 5 minutes.
After dividing 3 ml of an active reaction solution (20 mM HEPES buffer of pH 7.9 containing 4 mM ATP and 2 mM magnesium chloride) in a test tube, 0.1 ml of a glycerol kinase solution after dilution to an appropriate concentration (about 1 U/ml of the activity measured according to the assay method 1) was added thereto and mixed thoroughly. Then, the reaction mixture is preliminarily heated at each temperature for about 3 minutes. Then, 0.05 ml of aqueous 0.3 M glycerol solution was added and mixed for initiating the reaction. After the reaction for exact 10 minutes, 1 ml of 1N hydrochloric acid was added to terminate the enzyme reaction. After adding 0.15 ml of the reaction-terminated solution to 3 ml of a chromogenic solution (0.2 M HEPES buffer of pH 7.9 containing 0.01% 4-aminoantipyrin, 0.02% phenol, 5 U/ml peroxidase and 16 U/ml glycerol-3-phosphoric acid oxidase) and mixing, reaction at 37° C. for about 5 minutes was carried out to measure the absorbance at 500 nm. Then, the absorbance of 1 mM L-glycerol-3-phosphoric acid solution was simultaneously measured. The amount of L-glycerol-3-phosphoric acid produced via each of the reactions was determined. […]

[8] = Resistance against preservative (remaining activity ratio); format: physicochemical
Procedure: (§2) After dissolving glycerol kinase from each origin in 50 mM potassium phosphate buffer of pH 7.5 to become about 5 U/ml, each preservative was added at a concentration shown in the figure and stored at 4° C. for one week, to assay the remaining activity. […] The remaining activity ratio of the enzyme from each origin is shown in the order from the top as the activity when 0.3 mM ProClin® 300 is present, 0.8 nM ProClin® 150 is present, 500 mg/L IZU is present, 100 mg/L MIT is present and no preservative is added.
as §2, with “25°” for “4°”, “week” for “week,”, “mM” for “nM”
The resistance against preservative in the present invention can be evaluated on the basis of the remaining activity ratio when about 5 U/mL glycerol kinase coexists with preservative at 25° C. for one week in 50 mM potassium phosphate buffer of pH 7.5.
The Km values of glycerol and ATP were calculated according to the Lineweaver-Burk equation according to the method described in the section “Method for assaying glycerol kinase activity” <method 1>, wherein the concentration of glycerol or ATP was changed to assay the glycerol kinase activity at each substrate concentration. • (8) Relative activity: About 41.2 U/mg • (9) Resistance against the presence of preservative: Remaining activity ratio in coexistence with 100 mg/L MIT in 50 mM potassium phosphate buffer of pH 7.5 is shown in FIGS. 5 and 6. The activity was assayed according to the method 1.

B1: glycerol kinase of the present invention: Recombinant glycerol kinase (SEQ ID NO:1) of Cellulomonas sp. JCM2471 gene, expressed in E. coli KM1 (pCGK12) and purified (protein)
chain: MADYVLAIDQGTTSSRAIVFNHSGEIYSTGQLEHDQIFPRAGWVEHNPEQIWNNVREVVGLALTRGNLTHEDIAAVGITNQRETAVVWDKTTGKPVYNAIVWQDTRTQKIVDELGGDEGAEKYKSIVGLPLATYFSGPKIKWILDNVEGAREKAEKGDLLFGNTDTWVLWNMTGGTEGGVHVTDVTNASRTMLMDLDTLSWREDIAADMGIPLSMLPDIRSSSEVYGHGRPRGLVPGVPIAGILGDQQAATFGQACFEVGQAKNTYGTGNFLLLNTGTEKVMSKNGLLTTVCYKIGDAPAVYALEGSIAVTGSLVQWLRDNLGMFEDAPDVEWLAGKVQDNGGAYFVPAFSGLFAPYWRPDARGALVGLTRYVNRNHIARAALEATAFQSREVVDAMNADSGVDLTELRVDGGMVANELLMQFQADQLGVDVVRPKVAETTALGAAYAAGIAVGFWKGEQDVIDNWAEDKRWSPSMESGERERLYRNWKKAVTKTMEWVDEDVEQ
modifications: Cellulomonas sp. JCM2471
notes: JCM2471 gene, expressed in E. coli KM1 (pCGK12) and purified
Thermal stability (temperature range with remaining activity of 90% or more) [1]: ≤ 45 °C
Km [2]: ~111 µM
Relative activity [3]: about 41.2 U/mg protein
pH stability (pH range with remaining activity of 90% or more) [4]: 6.0-10.0
Optimal pH [5]: about 10.0
Km [6]: ~6.9 µM
Optimal temperature [7]: about 50 °C
Remaining activity ratio ([8]; 100 mg/L MIT, 50 mM potassium phosphate buffer pH 7.5, storage at 4° C. for one week): ~100%
Remaining activity ratio ([8]; 100 mg/L MIT, 50 mM potassium phosphate buffer pH 7.5, storage at 25° C. for one week): about 92%
Stability in the coexistence of preservatives (in words) ([8]; compared with glycerol kinase derived from Thermus flavus): high stability in the coexistence of preservatives
Remaining activity ratio ([8]; storage at 25° C. for one week in coexistence with preservatives (sentence names none)): ≥ 90%
